Results published in article PMC7961048 (2021).
Non-standard residues stand in square brackets, D forms with d. No end group written: not given here. *: point of attachment. Biotin = O=C1N[C@H]2[C@H](CS[C@H]2CCCCC(=O)*)N1; pT = C[C@@H](OP(=O)(O)O)[C@H](N)C(=O)O; ttds = NCCCOCCOCCOCCCNC(=O)CCC(=O)*

How the values were obtained:
[1] = biological target: T1, full-length human 14-3-3γ fused to the C terminus of MBP (human, UniProt P61981 1-247); assay: FP
T1 chain: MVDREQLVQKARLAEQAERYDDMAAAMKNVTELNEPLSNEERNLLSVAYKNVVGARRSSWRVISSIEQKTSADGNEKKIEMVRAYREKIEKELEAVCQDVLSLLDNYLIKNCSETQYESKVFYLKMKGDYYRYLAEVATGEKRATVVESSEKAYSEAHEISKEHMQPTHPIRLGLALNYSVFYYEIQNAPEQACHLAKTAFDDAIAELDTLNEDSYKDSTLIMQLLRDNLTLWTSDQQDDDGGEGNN

[2] = biological target: T2, unfused 14-3-3τ devoid of the flexible C-terminal tail (human); assay: FP
T2 chain: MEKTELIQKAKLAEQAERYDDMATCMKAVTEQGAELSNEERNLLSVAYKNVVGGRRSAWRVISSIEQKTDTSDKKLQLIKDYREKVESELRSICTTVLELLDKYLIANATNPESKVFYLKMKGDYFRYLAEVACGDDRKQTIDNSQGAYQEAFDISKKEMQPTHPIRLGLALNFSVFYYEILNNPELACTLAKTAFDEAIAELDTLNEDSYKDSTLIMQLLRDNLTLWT

[3] = biological target: T3, full-length human 14-3-3ζ fused to the C terminus of MBP (human, UniProt P63104 1-245); assay: FP
T3 chain: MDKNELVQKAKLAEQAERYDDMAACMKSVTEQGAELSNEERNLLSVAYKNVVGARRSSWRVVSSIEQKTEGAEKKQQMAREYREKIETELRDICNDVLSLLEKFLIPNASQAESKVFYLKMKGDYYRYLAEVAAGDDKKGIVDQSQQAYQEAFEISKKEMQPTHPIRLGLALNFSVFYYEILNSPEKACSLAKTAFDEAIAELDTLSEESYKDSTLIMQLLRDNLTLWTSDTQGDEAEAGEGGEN

[4] = biological target: T4, full-length human 14-3-3ε fused to the C terminus of MBP (human, UniProt P62258 1-255); assay: FP
T4 chain: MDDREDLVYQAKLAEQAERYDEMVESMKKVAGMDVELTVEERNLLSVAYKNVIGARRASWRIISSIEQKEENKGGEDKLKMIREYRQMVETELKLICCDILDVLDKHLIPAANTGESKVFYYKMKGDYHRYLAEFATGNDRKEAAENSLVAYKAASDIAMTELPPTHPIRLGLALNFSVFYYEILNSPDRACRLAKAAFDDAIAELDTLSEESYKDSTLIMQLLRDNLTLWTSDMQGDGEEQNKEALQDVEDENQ

[5] = biological target: T5, full-length human 14-3-3τ fused to the C terminus of MBP (human, UniProt P27348 1-245); assay: FP
T5 chain: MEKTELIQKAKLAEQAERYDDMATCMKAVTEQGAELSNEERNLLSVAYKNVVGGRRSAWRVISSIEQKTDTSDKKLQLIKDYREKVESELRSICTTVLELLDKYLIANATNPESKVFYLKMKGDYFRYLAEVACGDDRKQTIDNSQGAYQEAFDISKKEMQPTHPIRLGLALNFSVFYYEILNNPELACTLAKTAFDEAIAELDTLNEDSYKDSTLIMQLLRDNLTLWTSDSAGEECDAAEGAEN

[6] = biological target: T6, full-length human 14-3-3β fused to the C terminus of MBP (human, UniProt P31946 1-246); assay: FP
T6 chain: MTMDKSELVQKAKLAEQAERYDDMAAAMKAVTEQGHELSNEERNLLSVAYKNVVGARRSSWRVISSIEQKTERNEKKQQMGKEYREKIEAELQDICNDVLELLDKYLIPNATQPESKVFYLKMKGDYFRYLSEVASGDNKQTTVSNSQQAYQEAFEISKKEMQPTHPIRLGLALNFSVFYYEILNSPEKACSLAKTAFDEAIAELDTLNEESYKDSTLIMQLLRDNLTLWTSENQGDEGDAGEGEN

[7] = biological target: T7, full-length human 14-3-3σ fused to the C terminus of MBP (human, UniProt P31947 1-248); assay: FP
T7 chain: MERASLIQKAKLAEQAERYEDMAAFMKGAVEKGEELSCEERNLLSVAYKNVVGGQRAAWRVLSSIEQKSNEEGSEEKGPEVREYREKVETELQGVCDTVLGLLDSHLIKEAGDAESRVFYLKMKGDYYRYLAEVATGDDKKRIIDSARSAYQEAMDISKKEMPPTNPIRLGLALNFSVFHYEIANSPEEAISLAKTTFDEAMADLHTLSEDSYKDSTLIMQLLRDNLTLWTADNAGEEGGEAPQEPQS

[8] = biological target: T8, full-length human 14-3-3η fused to the C terminus of MBP (human, UniProt Q04917 1-246); assay: FP
T8 chain: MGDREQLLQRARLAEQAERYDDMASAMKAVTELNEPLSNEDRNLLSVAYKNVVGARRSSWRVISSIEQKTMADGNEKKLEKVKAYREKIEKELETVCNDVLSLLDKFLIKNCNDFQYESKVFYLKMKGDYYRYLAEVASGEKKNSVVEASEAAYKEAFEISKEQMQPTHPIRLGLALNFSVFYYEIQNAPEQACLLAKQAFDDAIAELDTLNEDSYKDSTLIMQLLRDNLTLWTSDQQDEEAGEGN

[9] = biological target: T1, full-length human 14-3-3γ fused to the …; assay: FP
[10] = biological target: T3, full-length human 14-3-3ζ fused to the …; assay: FP
[11] = biological target: T1, full-length human 14-3-3γ fused to the …; assay: FP; +FSC
[12] = biological target: T3, full-length human 14-3-3ζ fused to the …; assay: FP; +FSC

Binder {Biotin-ttds}-SSRTRRE[pT]QL [HPV16 E6 phospho-PBM peptide p16E6] has a Kd [1] of 37.2 µM, a Kd [2] of 135 µM and a Kd [3] of 73.6 µM. The Kd [4] was over 300 µM, the Kd [5] was 144 µM and the Kd [6] was 159 µM. It also gave a Kd [7] of over 300 µM, a Kd [8] of 80.5 µM and a Kd [9] of 37.2 µM. For the same binder, the Kd [10] was 73.6 µM, the Kd [11] was 91.7 µM and the Kd [12] was 161 µM.

{Biotin-ttds}-RLQRRRE[pT]QV [HPV18 E6 phospho-PBM peptide p18E6] was tested, and the Kd [1] was 11.1 µM, the Kd [2] was 42.3 µM and the Kd [3] was 22.4 µM. It also gave a Kd [4] of 101 µM, a Kd [5] of 37.8 µM and a Kd [6] of 42.2 µM. It also gave a Kd [7] of 139 µM, a Kd [8] of 23.6 µM and a Kd [9] of 11.1 µM. For the same binder, the Kd [10] was 22.4 µM, the Kd [11] was 19.3 µM and the Kd [12] was 37.3 µM.
